This note sets out measurements from the supplement of paper PMC9170038.

For series [1], the system named is MS2 coat protein. Put plainly: apparent KD of MS2 coat protein; designed switch direction (-1 OFF switch, 1 ON switch): 1; higher = weaker reporter binding. Conditions: Eterna round: R98. As to the method: (§1)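 RNA-MaP: designed FMN/MS2 RNA switches (84 nt design region) are transcribed on-chip within common flanks and titrated with SNAP-549-labelled MS2 coat protein (about 1-3000 nM) in 100 mM Tris pH 7.5, 80 mM KCl, 4 mM MgCl2, without or with 200 uM FMN. Median apparent KD per design; activation ratio = KD,OFF / KD,ON.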

Series [2] has as its system MS2 coat protein. Put plainly: apparent KD of MS2 coat protein; higher = weaker reporter binding. Conditions: Eterna round: R101. As to the method: as §1
For series [3], the system named is MS2 coat protein. Kind of series: apparent KD of MS2 coat protein; designed switch direction (-1 OFF switch, 1 ON switch): -1; higher = weaker reporter binding. Conditions: Eterna round: R98. Here is the method: as §1
Series [4] has as its system MS2 coat protein. Kind of series: apparent KD of MS2 coat protein, switch ON state; designed switch direction (-1 OFF switch, 1 ON switch): 1; higher = weaker reporter binding. Conditions: FMN input: 0 or 200 uM; Eterna round: R93 (includes R88 designs). In outline:
(§2)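 Apparent KD was obtained for each design as the median of normalised binding-curve fits over its clusters. RNA switches transcribed on-chip from Illumina sequencing clusters were titrated with SNAP-549-labelled MS2 coat protein (twofold steps, 0.7 or 1.5 nM to 3 µM) in 100 mM Tris-HCl pH 7.5, 80 mM KCl, 4 mM MgCl2, without or with constant ligand.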

In series [5] the test system is MS2 coat protein. Put plainly: apparent KD of MS2 coat protein, switch OFF state (with FMN for OFF switches, without FMN for ON switches); designed switch direction (-1 OFF switch, 1 ON switch): 1; higher = weaker reporter binding. Conditions: FMN input: 0 or 200 uM; Eterna round: R93 (includes R88 designs). In outline:
as §2

Consider “AAAACAUGAGGAUCACCCAUGUAAAGAUCGGUUAUUAAAAGUGAGGAUAUACAAAAUUUUAUAUAGUAGAAGGCACUGGGUACA [JR_SSNG3_Sub001]”, for which the “apparent KD of MS2 coat protein” value in the series on MS2 coat protein [1] (input ligand: FMN 200 uM) was 28.9 nM; in the series on MS2 coat protein [1] (input ligand: none) it was 27.8 nM.
For the sequence “AAAUAACUUGAAGGAUAUCAGGGUGCACCUCAGUAAAACUGAGGUGCACCCUGAGAAGGUCGAGGAUCACCCGAUCUAAAUAAA [#SharedSequence SLExNG1: 3-2] (puzzle (switch architecture): Small Loop Exclusion NG 1)”, the results for the “apparent KD of MS2 coat protein” value in the series with MS2 coat protein [2] (input ligand: FMN 200 uM) and with MS2 coat protein [2] (input ligand: none) were 13.5 nM and 9.19 nM, respectively.
On to “AAAUAACUUGAAGGAUAUGACCCUCGAGGUGACUAAAAGUCACCUCGAGGGUCAGAAGGUCGAGGAUCACCCGAUCUAAAUAAA [#SharedSequence SLExNG1: 3-1] (puzzle (switch architecture): Small Loop Exclusion NG 1)”, for which the results for the “apparent KD of MS2 coat protein” value in the series with MS2 coat protein [2] (input ligand: FMN 200 uM) and with MS2 coat protein [2] (input ligand: none) were 24.6 nM and 10.2 nM, respectively.
On to “AAAUUUAACGAAGGAUAUGCUGACAUGAGGAUCACCCAUGUGUGCCUUGUGUUGCUGCCUCGGGAGCAGAAGGUCGUAUACAUA [Ex NG2 #11]”, for which the “apparent KD of MS2 coat protein” value in the series on MS2 coat protein [3] (input ligand: FMN 200 uM) is 613 nM; in the series with MS2 coat protein [3] (input ligand: none), 454 nM.
For “ACAUGGAAUCGAGGAUAUGACGCGGAAACGAAGUCAGAAGGCGAAAAUUUAACUCGAUAAUACAUGAGGAUCACCCAUGUAAUU [AK-NGROCr2-ExNG1-3]”, the entries for the “apparent KD of MS2 coat protein” value in the series on MS2 coat protein [3] (input ligand: FMN 200 uM) and in the series with MS2 coat protein [3] (input ligand: none) were 24.6 nM and 19.7 nM, respectively.
Taken in the same sequence, the figures for “AGACUCAGAUGGUGCCAGCUUGCACAUGAGGAUCACCCAUGUCAGGAUAUCUUCGCUCCGAGAGAAGAGAAGGGACAAGAAUUU [Soedon]” were 234 nM and 79.4 nM.
Taken in the same sequence, the figures for “AGAUGACAAAGUCAUCUCGCGCAGACAUGAGGAUCACCCAUGUAGGAUAUACUACUCAAAGAGUAGUAGAAGGACAUGUGUCUU [Ex NG2 #57]” were 111 nM and 32.5 nM.
As to “AGGUAUACUUAGAAGGCGUGGACGAAACGUCCACGAGGAUAUGAGGAUCACCCAUAUCAGGUCAGCCUGCAAAGCAGGCUGACC [#SharedSequence - IExNG1: 8-2] (puzzle (switch architecture): Inverted Exclusion NG 1)”, the “apparent KD of MS2 coat protein” value stood at 43.9 nM in the series on MS2 coat protein [2] (input ligand: FMN 200 uM) and 12.2 nM in the series on MS2 coat protein [2] (input ligand: none).
Consider “CAACUGGCACAGAAGGGUGACAUGAGGAUCACCCAUGUAGCGUGGCACUCAGGAGGAGCCACGCCACAGGAUAUGUGCCGACAC [Beisreriar] (puzzle (switch architecture): Inverted Same State NG 2)”, for which the “apparent KD of MS2 coat protein” value was found to be 45.7 nM with MS2 coat protein [2] (input ligand: FMN 200 uM) and 29.9 nM in the series on MS2 coat protein [2] (input ligand: none).
With “CCACAACAUUGAGGAUAUGCACAGGAUCACCGUGUAGAAGGCAUCAGGGAGAAGGUGCAGAGGAUCACCCUGUAAGGAUAUCUA [pwkr2 ssNG1 DX.8]”, the “apparent KD of MS2 coat protein” value was determined as 133 nM in the series with MS2 coat protein [1] (input ligand: FMN 200 uM) and 340 nM in the series on MS2 coat protein [1] (input ligand: none).
For “CCGACGCCUCAGAAGGCACUCGCAUAAUGCGAGUGAGGAUAUGAGGAUCACCCAUAUCAACGUCGGAGUCACCGAAACGGUGAC [#SharedSequence - IEx NG 1-2] (puzzle (switch architecture): Inverted Exclusion NG 1)”, the “apparent KD of MS2 coat protein” value in the series with MS2 coat protein [2] (input ligand: FMN 200 uM) stood at 78.1 nM.
For “CCGAUGCAAAUAAAACAUGAGGAUCACCCAUGUGAGUCUCAUGAGGAUAUGCAGGUCUUUGACUUGCAGAAGGCAUGGCGUCGG [Mat - Same State NG 3 - JL Mod - D70]”, the “apparent KD of MS2 coat protein” value in the series on MS2 coat protein [1] (input ligand: FMN 200 uM) is 138 nM; in the series with MS2 coat protein [1] (input ligand: none) it was 1050 nM.
Taken in the same sequence, the figures for “GACGAAAUCUUAGGAUAUCGAGUGGAAUACACUCGAGAAGGAAGAUAUACCUGAGGAUCACCCAGGUAAAACUGGACGUCAAUA [Same State NG1 - A3C, U17G Submission 8H U68A, U7A]” were 26.6 nM and 29.8 nM.
Turning to “GCACUCAAGUUAGGAUAUGGAUCGGAAAACGAUCCAGAAGGAACAUGAAAACAUGAGCAUCAGCCAUGUUCCAGAAACGAGUGC [SameSame 13 - Jieux - Same State NG 1]”, the “apparent KD of MS2 coat protein” value in the series on MS2 coat protein [1] (input ligand: FMN 200 uM) was determined as 22.8 nM; in the series on MS2 coat protein [1] (input ligand: none) it was 69.9 nM.
In the case of “GCAGAAGGUGCGGAGGAUCACCCUGUAAGGAUAUGCAUUAGCAAGGAUAUACAGAGGAUCACCCUGUAGAAGGUGCACUUCUAA [pwkr2 ssNG3 DX.7]”, the “apparent KD of MS2 coat protein” value came to 1290 nM in the series with MS2 coat protein [1] (input ligand: FMN 200 uM) and 1170 nM in the series on MS2 coat protein [1] (input ligand: none).
Consider “GCUCUCACUUGAGGAUAUCGAGUGGAAUACACUCGAGAAGGCAGGAAAACCUGAGGAUCACCCAGGUAACUGGAAAGAGAGCAA [Same State NG1 - A3C, U17G Submission 5G-G46A]”, for which the “apparent KD of MS2 coat protein” value stood at 20.3 nM in the series on MS2 coat protein [1] (input ligand: FMN 200 uM) and 16.1 nM in the series with MS2 coat protein [1] (input ligand: none).
The matching figures for “GCUGUCGCAUGAGGAUAUGGUCACGUUUCGUGACCAGAAGGCAUGUCAAUAGACAUGAGGAUCACCCAUGUAGUAAAGACAGCA [Mat - Same State NG 1 - JL Mod - D40]”: 35.1 nM and 386 nM.
Taken in the same sequence, the figures for “GGACAUCCCACAGGAUAUGCUGGACUUUGUCCAGCAGAAGGGUGAAACAUGAGGAUCACCCAUGUAAGGAUGUCCAUAUUUAAU [Denovo 40]” were 217 nM and 2190 nM.
As to “GGAGAUACAUGAGGAUCACCCAUGUAGGAUAUAUAGUAUAUAUAUAUCGAAAGAUAUAUAUAUAUAUAGAAGGGCGUGCACACC [#LOL-16] (puzzle (switch architecture): Small Loop Exclusion NG 3)”, the “apparent KD of MS2 coat protein” value was 6.74 nM in the series on MS2 coat protein [2] (input ligand: FMN 200 uM) and 8.34 nM with MS2 coat protein [2] (input ligand: none).
The matching figures for “GGAGAUACAUGAGGAUCACCCAUGUAGGAUAUCGGGCCCAUAUACGGCGAAAGCCGUAUAUGGGCCGAGAAGGGCGUACACACC [#LOL-7] (puzzle (switch architecture): Small Loop Exclusion NG 3)”: 7.96 nM and 8.78 nM.
The matching figures for “GGCAGCCUUCAGAAGGGAGUGCGAUAAUCGCACUCAGGAUAUGAGGAUCACCCAUAUCAAGCUGCCACUGAGGCAAAGCCUCAG [#SharedSequence - IEx NG 2-1] (puzzle (switch architecture): Inverted Exclusion NG 1)”: 12.1 nM and 10.8 nM.
For the sequence “GUAGCAUACUGAGGAUAUUCAUAUAAUAAAUAAACAUGAGGAUCACCCAUGUGGCGAAAGCCUUGGGAGAAGGCAGAAUGCUAC [Xeonanis 55 7]”, the “apparent KD of MS2 coat protein” value in the series with MS2 coat protein [1] (input ligand: FMN 200 uM) amounted to 38.3 nM; in the series with MS2 coat protein [1] (input ligand: none), 511 nM.
Taken in the same sequence, the figures for “GUAGCUAUCGGAGGAUAUUCAUAGCCGAGAGGCACAUGAGGAUCACCCAUGUGCGGAAACGCUUGGGAGAAGGCCGAUAGCUAC [Mat - Same State NG 2 - JL Mod - D77]” were 14.3 nM and 21.5 nM.
In the case of “GUCAGCUCGUGAGGAUAUACAUCACUGCUUCGGCAGUGUAUUAAGAUCACAUGAGGAUCACCCAUGUAGAAGGCACGAGCUGAU [#SameSwitchNG2InvertedNG3 NG2 A1] (puzzle (switch architecture): Exclusion NG 2)”, the entries for the “apparent KD of MS2 coat protein” value in the series on MS2 coat protein [2] (input ligand: FMN 200 uM) and with MS2 coat protein [2] (input ligand: none) were 201 nM and 14.6 nM, respectively.
On to “GUGAGGCAUCUACACGCUCGGGCCGAGGAUAUACAUGAGGAUCACCCAUGUAACAGUGCGGUCAUGUAGAAGGCGGCUAAAUUA [Rianrare] (puzzle (switch architecture): Small Loop Exclusion NG 3)”, for which the “apparent KD of MS2 coat protein” value was found to be 42.3 nM with MS2 coat protein [2] (input ligand: FMN 200 uM) and 11.1 nM in the series with MS2 coat protein [2] (input ligand: none).
“GUGCACAUUCGAGGAUAUCGGAGAGGAGUCCUUCGAGAAGGCGAUUCAUGCUGUGUUAUUCUGGACAUGAGGAUCACCCAUGUG [LRO019_SS NG 1 mod JR_SSNG1_Sub034]”: the results for the “apparent KD of MS2 coat protein” value with MS2 coat protein [1] (input ligand: FMN 200 uM) and in the series with MS2 coat protein [1] (input ligand: none) were 107 nM and 149 nM, respectively.
The matching figures for “UAACUAAUAUACACAUGAGGAUCACCCAUGUCCACCCGUGGACAGGAUAUCUGGCCGCGCCGGCUGGAGAAGGGUCCGUAUUGU [Arianesge]”: 172 nM and 56.2 nM.
“UGCUAACUGUAGAAGGGUGACAUGAGGAUCACCCAUGUGCACGCGCGAUUUACGGCGCGCGUGCCACAGGAUAUACAGUUUAGU [Atquar] (puzzle (switch architecture): Inverted Same State NG 2)”: the “apparent KD of MS2 coat protein” value in the series on MS2 coat protein [2] (input ligand: FMN 200 uM) was 34.3 nM; in the series on MS2 coat protein [2] (input ligand: none) it was 32.7 nM.
For the sequence “UUAUUACAUGAGGAUCACCCAUGUUUAGUGGUGACAGGAUAUACGAAAAAAAAAAAAAAAGUAGAAGGGUCUUAUU [SS 1.1]”, the “apparent KD of MS2 coat protein” value turned out to be 162 nM in the series on MS2 coat protein [4] and 50.5 nM with MS2 coat protein [5].
“UUGGACGUCGUAGGAUAUGUAGGAUAUUCCUACAUGAGGAUCACCCAUGUUUACAUGGAAGAAGGACAGAAGGACGAUGUCCAU (puzzle (switch architecture): Same State NG 2)”: the “apparent KD of MS2 coat protein” value is 5.73 nM with MS2 coat protein [2] (input ligand: FMN 200 uM) and 572 nM in the series on MS2 coat protein [2] (input ligand: none).
On to “UUUGGGAGCACAGGAUAUGGCACCUCGACCGUGCCAGAAGGGUGAUUCUGUUGGUGGCCACAUGAGGAUCACCCAUGUGCCUCC [Araterin]”, for which the “apparent KD of MS2 coat protein” value with MS2 coat protein [1] (input ligand: FMN 200 uM) came out at 21.5 nM; in the series on MS2 coat protein [1] (input ligand: none), 275 nM.
